Consider one substance from patent US20170253873A1.

This experiment deals with phosphorylated Smad3 (pSmad3) (UniProt Q8BUN5). Kind of experiment: cell-based or functional assay.
Chain of phosphorylated Smad3 (pSmad3) (Q8BUN5 2-425 limits assumed): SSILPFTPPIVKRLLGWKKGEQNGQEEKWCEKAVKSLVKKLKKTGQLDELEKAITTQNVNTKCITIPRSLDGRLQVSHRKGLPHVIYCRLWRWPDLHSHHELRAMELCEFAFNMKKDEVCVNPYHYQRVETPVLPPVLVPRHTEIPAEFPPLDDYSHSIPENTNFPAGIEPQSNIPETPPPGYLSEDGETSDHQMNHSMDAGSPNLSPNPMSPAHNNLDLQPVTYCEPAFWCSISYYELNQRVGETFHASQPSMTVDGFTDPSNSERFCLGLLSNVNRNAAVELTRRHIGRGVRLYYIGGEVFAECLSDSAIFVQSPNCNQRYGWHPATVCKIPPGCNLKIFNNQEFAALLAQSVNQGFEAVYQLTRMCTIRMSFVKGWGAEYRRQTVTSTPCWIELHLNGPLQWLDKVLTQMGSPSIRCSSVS

Substance “TAT-SH3 (TAT-SNX9(SH3) fusion polypeptide containing the full length SH3 domain, amino acids 1 to 62) (from UniProt Q9Y5X1 1-62) (designed binder)” came in with a decrease in Smad3-dependent luciferase activity of 70%.
